Measurements reported in patent US20250332264A1, “GhR-BINDING PEPTIDE AND COMPOSITION COMPRISING SAME” (priority 2021, published 2025).
Starred links: 1 amine or outer side, 2 acyl side, 3 side chain; linkers in the order of their positions; H or OH if unused. Positions of bridges follow the written chain, without caps; N, C: chain ends. Non-standard residues stand in square brackets, D forms with d. Groups on a side chain read outwards from the residue. No end group written: not given here. *: point of attachment. A4pipaa = 4-amino-1-(carboxymethyl)piperidine-4-carboxylic acid, O=C(C1(N[*:1])CCN(CC(=O)[*:3])CC1)[*:2]; BiPh4pCO = 4-([1,1′-biphenyl]-4-yl)butanoic acid, O=C(CCCc1ccc(-c2ccccc2)cc1)*; Biph4pCO = 4-([1,1′-biphenyl]-4-yl)butanoic acid, O=C(CCCc1ccc(-c2ccccc2)cc1)*; X1 = 4‑(carboxymethyl)piperazine‑1‑carbonyl, O=C(O)CN1CCN(C(=O)*)CC1; Trp(1-CH2CO) = O=C([C@H](Cc1cn(CC(=O)[*:3])c2ccccc12)N[*:1])[*:2]; Trp(5-OMe) = COc1ccc2[nH]cc(C[C@H](N)C(=O)O)c2c1; Butanoyl(4-(4-I-phenyl)) = O=C(CCCc1ccc(I)cc1)*; Trp(5-OH) = N[C@@H](Cc1c[nH]c2ccc(O)cc12)C(=O)O; Phe(4-COOH) = N[C@@H](Cc1ccc(C(=O)O)cc1)C(=O)O; Trp(7-aza) = N[C@@H](Cc1c[nH]c2ncccc12)C(=O)O; Butanoyl(4-(4-MePh)) = Cc1ccc(CCCC(=O)*)cc1; C17 diacid = O=C(O)CCCCCCCCCCCCCCCC(=O)*; C16 diacid = O=C(O)CCCCCCCCCCCCCCC(=O)*; C15 diacid = O=C(O)CCCCCCCCCCCCCC(=O)*; C14 diacid = O=C(O)CCCCCCCCCCCCC(=O)*; Hexanoyl(6-Ph) = O=C(CCCCCc1ccccc1)*; Butanoyl(4-Ph) = O=C(CCCc1ccccc1)*; 4Pal = N[C@@H](Cc1ccncc1)C(=O)O; NMeK = CN[C@@H](CCCCN)C(=O)O; W5H = not defined here; AEEA = NCCOCCOCC(=O)O; Aib = CC(C)(N)C(=O)O

B1: GhR_PD_233 (peptide)
peptide: {CH2CO}-[F4COO][MeK]VVSN[W1aa][F4COO]K[W5H][Aib]VCK
modifications: thioether N-13; lactam 2-7; reading uncertain; also: albumin binder E-E-cC14COO on the side-chain amino group of the linker lysine, which lysine is not given here
B2: GhR_PD_224 (peptide)
peptide: {CH2CO}-[Phe(4-COOH)]KVVSN[Trp(5-OMe)][Phe(4-COOH)]K[Trp(5-OH)][A4pipaa]VC-NH2
modifications: thioether N-13; not fully specified (residue 2); also: albumin binder E-4IPhpCO, attachment site not given here
B3: GhR_PD_202 (peptide)
peptide: {CH2CO}-[4Pal]KVVSN[Trp(5-OMe)][Phe(4-COOH)]K[Trp(5-OH)][Aib]VC-NH2
modifications: thioether N-13; not fully specified (residue 2); also: albumin binder E-4IPhpCO, attachment site not given here
B4: GhR_PD_212 (peptide)
peptide: {CH2CO}-[Phe(4-COOH)]KVVSN[Trp(5-OMe)][Phe(4-COOH)]K[Trp(5-OH)][Aib]VC-NH2
modifications: thioether N-13; not fully specified (residue 2); also: albumin binder E-E-4IPhpCO, attachment site not given here
B5: GhR_PD_211 (peptide)
peptide: {CH2CO}-YKVVSN[Trp(5-OMe)][Phe(4-COOH)]K[Trp(5-OH)][Aib]VC-NH2
modifications: thioether N-13; not fully specified (residue 2); also: albumin binder E-E-4IPhpCO, attachment site not given here
B6: GhR_PD_204 (peptide)
peptide: {CH2CO}-[4Pal]KVVSN[Trp(7-aza)][Phe(4-COOH)]K[Trp(5-OH)][Aib]VC-NH2
modifications: thioether N-13; not fully specified (residue 2); also: albumin binder E-4IPhpCO, attachment site not given here
B7: GhR_PD_223 (peptide)
peptide: {CH2CO}-[Phe(4-COOH)]KVVSN[Trp(5-OMe)][Phe(4-COOH)]K(X1)[Trp(5-OH)][Aib]VC-NH2
modifications: thioether N-13; not fully specified (residue 2); also: albumin binder E-4IPhpCO, attachment site not given here
B8: GhR_PD_208 (peptide)
peptide: {CH2CO}-[Phe(4-COOH)]KVVSN[Trp(5-OMe)][Phe(4-COOH)]K[Trp(5-OH)][Aib]VC-NH2
modifications: thioether N-13; not fully specified (residue 2); also: albumin binder E-4IPhpCO, attachment site not given here
B9: GhR_PD_206 (peptide)
peptide: {CH2CO}-YKVVSN[Trp(5-OMe)]YK(X1)[Trp(5-OH)][Aib]VC-NH2
modifications: thioether N-13; not fully specified (residue 2); also: albumin binder E-4IPhpCO, attachment site not given here
B10: GhR_PD_203 (peptide)
peptide: {CH2CO}-YKVVSN[Trp(7-aza)][Phe(4-COOH)]K[Trp(5-OH)][Aib]VC-NH2
modifications: thioether N-13; not fully specified (residue 2); also: albumin binder E-4IPhpCO, attachment site not given here

biological target: Recombinant human GhR-Fc protein (R&D Systems) (human) (UniProt P10912); assay: SPR, Biacore T200, single-cycle kinetics, GhR-Fc immobilised on CM5
Sequence (P10912 19-264 limits assumed): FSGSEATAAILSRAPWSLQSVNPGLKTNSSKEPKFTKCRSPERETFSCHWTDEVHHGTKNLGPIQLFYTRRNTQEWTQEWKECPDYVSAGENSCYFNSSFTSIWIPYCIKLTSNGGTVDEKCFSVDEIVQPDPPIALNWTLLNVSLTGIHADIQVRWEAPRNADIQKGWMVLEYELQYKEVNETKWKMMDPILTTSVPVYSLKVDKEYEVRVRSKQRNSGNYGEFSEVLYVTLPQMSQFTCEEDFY

Binder | Kd [nM]
B1 | 2.85
{CH2CO}-Y[MeK]([Glu-Glu-Butanoyl(4-(4-I-phenyl))])VVSN[Trp(5-OMe)][Phe(4-COOH)]K(X1)[Trp(5-OH)][Aib]VC-NH2 (thioether N-13) [GhR_PD_227] | 7.38
{CH2CO}-[Phe(4-COOH)]KVVSN[Trp(1-CH2CO)][Phe(4-COOH)]K[Trp(5-OH)][Aib]VCK([Glu-Glu-Butanoyl(4-(4-MePh))])-NH2 (thioether N-13; lactam 2-7; not fully specified (residue 2)) [GhR_PD_245] | 1.95
{CH2CO}-[Phe(4-COOH)]KVVSN[Trp(1-CH2CO)][Phe(4-COOH)]K[Trp(5-OH)][Aib]VCK([Glu-Glu-Ac])-NH2 (thioether N-13; lactam 2-7; not fully specified (residue 2)) [GhR_PD_267] | 3.51
B2 | 10.8
B3 | 2.77
{CH2CO}-[Phe(4-COOH)]KVVSN[Trp(1-CH2CO)][Phe(4-COOH)]K[Trp(5-OH)][Aib]VCK([Glu-Glu-Hexanoyl(6-Ph)])-NH2 (thioether N-13; lactam 2-7; not fully specified (residue 2)) [GhR_PD_254] | 1.93
{CH2CO}-[Phe(4-COOH)][NMeK]([Glu-Hexanoyl(6-Ph)])VVSN[Trp(5-OMe)][Phe(4-COOH)]K[Trp(5-OH)][4‑amino‑1‑(carboxymethyl)piperidine‑4‑carboxylic acid]VC-NH2 (thioether N-13) [GhR_PD_256] | 2.82
B4 | 2.96
{CH2CO}-[Phe(4-COOH)]KVVSN[Trp(1-CH2CO)][Phe(4-COOH)]K[Trp(5-OH)][Aib]VCK([Glu-Glu-C17 diacid])-NH2 (thioether N-13; lactam 2-7; not fully specified (residue 2)) [GhR_PD_270] | 2.53
{CH2CO}-[Phe(4-COOH)]KVVSN[Trp(1-CH2CO)][Phe(4-COOH)]K[Trp(5-OH)][Aib]VCGP[dS][dS][dS]K([Glu-Glu-Butanoyl(4-(4-I-phenyl))])-NH2 (thioether N-13; lactam 2-7; not fully specified (residue 2)) [GhR_PD_248] | 1.88
B5 | 3.36
{CH2CO}-[Phe(4-COOH)]KVVSN[Trp(1-CH2CO)][Phe(4-COOH)]K[Trp(5-OH)][Aib]VCK([Glu-Glu-Butanoyl(4-Ph)])-NH2 (thioether N-13; lactam 2-7; not fully specified (residue 2)) [GhR_PD_218] | 2.03
{CH2CO}-[Phe(4-COOH)]KVVSN[Trp(1-CH2CO)][Phe(4-COOH)]K[Trp(5-OH)][Aib]VCK([Glu-Glu-Biph4pCO])-NH2 (thioether N-13; lactam 2-7; not fully specified (residue 2)) [GhR_PD_253] | 1.61
{CH2CO}-Y[MeK]([Glu-Glu-Butanoyl(4-(4-I-phenyl))])VVSN[Trp(5-OMe)][Phe(4-COOH)]K[Trp(5-OH)][A4pipaa]VC-NH2 (thioether N-13) [GhR_PD_228] | 4.13
{CH2CO}-[Phe(4-COOH)]KVVSN[Trp(1-CH2CO)][Phe(4-COOH)]K[Trp(5-OH)][Aib]VCK([AEEA-AEEA-Glu-Glu-C16 diacid])-NH2 (thioether N-13; lactam 2-7; not fully specified (residue 2)) [GhR_PD_273] | 3.61
{CH2CO}-[Phe(4-COOH)][NMeK]([Glu-BiPh4pCO])VVSN[Trp(5-OMe)][Phe(4-COOH)]K[Trp(5-OH)][4‑amino‑1‑(carboxymethyl)piperidine‑4‑carboxylic acid]VC-NH2 (thioether N-13) [GhR_PD_255] | 5.81
B6 | 9.43
{CH2CO}-[Phe(4-COOH)]KVVSN[Trp(1-CH2CO)][Phe(4-COOH)]K[Trp(5-OH)][Aib]VCK([AEEA-AEEA-Glu-Glu-C14 diacid])-NH2 (thioether N-13; lactam 2-7; not fully specified (residue 2)) [GhR_PD_271] | 3.88
{CH2CO}-[Phe(4-COOH)]KVVSN[Trp(1-CH2CO)][Phe(4-COOH)]K[Trp(5-OH)][Aib]VCK([Glu-Glu-Butanoyl(4-(4-I-phenyl))])-NH2 (thioether N-13; lactam 2-7; not fully specified (residue 2)) [GhR_PD_217] | 1.46
B7 | 5.47
{CH2CO}-[Phe(4-COOH)]KVVSN[Trp(1-CH2CO)][Phe(4-COOH)]K[Trp(5-OH)][Aib]VCK([Glu-Butanoyl(4-(4-I-phenyl))])-NH2 (thioether N-13; lactam 2-7; not fully specified (residue 2)) [GhR_PD_247] | 1.36
B8 | 2.19
B9 | 9.67
{CH2CO}-[Phe(4-COOH)]KVVSN[Trp(1-CH2CO)][Phe(4-COOH)]K[Trp(5-OH)][Aib]VCK([Glu-Glu-C15 diacid])-NH2 (thioether N-13; lactam 2-7; not fully specified (residue 2)) [GhR_PD_269] | 3.1
{CH2CO}-[Phe(4-COOH)]KVVSN[Trp(1-CH2CO)][Phe(4-COOH)]K[Trp(5-OH)][Aib]VCK([AEEA-AEEA-Glu-Glu-C17 diacid])-NH2 (thioether N-13; lactam 2-7; not fully specified (residue 2)) [GhR_PD_274] | 3.33
B10 | 3.95
{CH2CO}-[Phe(4-COOH)]KVVSN[Trp(1-CH2CO)][Phe(4-COOH)]K[Trp(5-OH)][Aib]VCK([AEEA-AEEA-Glu-Glu-C15 diacid])-NH2 (thioether N-13; lactam 2-7; not fully specified (residue 2)) [GhR_PD_272] | 3.7
